Results: US20200353078A1 (AstraZeneca / MedImmune, published 2020)
Like-named read-outs stand apart in the source and are kept apart here.

B1: Human IL-33 Flag®His (ligand)
chain: SITGISPITEYLASLSTYNDQSITFALEDESYEIYVEDLKKDEKKDKVLLSYYESQHPSNESGDGVDGKMLMVTLSPTKDFWLHANNKEHSVELHKCEKPLPDQAFFVLHNMHSNCVSFECKTDPGVFIGVKDNHLALIKVDSSENLCTENILFKLSETNPAFLYKVVGAADYKDDDDKAAHHHHHHHHHH
notes: Mature IL-33 with C-terminal FLAG 10xHis tag, from E. coli; biotinylated via free cysteines where used biotinylated; also called Mature Human IL-33_FH; human IL-33 FH
B2: 33_640087-7B IgG1 (antibody, V domains shown)
VH: EVQLLESGGGLVQPGGSLRLSCAASGFTFSSYAMSWVRQAPGKGLEWVSGISAIDQSTYYADSVKGRFTISRDNSKNTLYLQMNSLRAEDTAVYYCARQKFMQLWGGGLRYPFGYWGQGTMVTVSS
VL: SYVLTQPPSVSVSPGQTASITCSGEGMGDKYAAWYQQKPGQSPVLVIYRDTKRPSGIPERFSGSNSGNTATLTISGTQAMDEADYYCGVIQDNTGVFGGGTKLTVL
notes: IgG1

Assays:
[1] = biological target: T1, 33v20064 IgG1; test: HTRF: unlabelled test protein competes with biotinylated human IL33-01 for DyLight labelled 33v20064 IgG
T1 construct: IgG1; also called ZZ1EBX-E05
T1 sequence (VL, as listed by the source): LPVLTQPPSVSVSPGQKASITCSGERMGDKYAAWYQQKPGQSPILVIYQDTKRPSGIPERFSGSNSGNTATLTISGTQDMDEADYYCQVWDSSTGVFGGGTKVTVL
Protocol: (§1) Human, cyno and mouse IL-33 FLAG® His (described in Example 1) were tested for inhibition of human IL-33 binding to DyLight labelled 33v20064 by adding 5 microlitres of each dilution of IL-33 sample to a 384 well low volume assay plate (Costar, 3673). […] This was followed by the addition of 2.5 microlitres of a solution containing 1.2 nM biotinylated human IL-33-01 combined with 1.5 nM streptavidin cryptate detection (Cisbio International, 610SAKLB). All dilutions were performed in assay buffer containing 0.8 M potassium fluoride (VWR, 26820.236) and 0.1% bovine serum albumin (BSA, PAA, K05-013) in Dulbeccos PBS (Invitrogen, 14190185). Assay plates were incubated for 1 hour at room temperature and time resolved fluorescence was read at 620 nm and 665 nm emission wavelengths using an EnVision plate reader (Perkin Elmer). Data were analysed by calculating the 665/620 nm ratio followed by the % Delta F values for each sample. The 665/620 nm ratio was used to correct for sample interference using Equation 1. The % Delta F for each sample was then calculated using Equation 2. The negative control (non-specific binding) was defined by replacing biotinylated human IL-33 combined with streptavidin cryptate detection with streptavidin cryptate detection only. […] IC₅₀ values were determined using GraphPad Prism software by curve fitting using a four-parameter logistic equation (Equation 4).

[2] = biological target: T2, 33_640237-2B IgG1; test: HTRF: unlabelled test protein competes with biotinylated human IL33-01 for DyLight650 labelled 33_640237-2B IgG
T2 construct: IgG1
Protocol: (§2) Human, cyno and mouse IL-33 FLAG® His (described in Example 1 and Table 21), Human IL-1 alpha and IL-1 beta (R&D Systems) (Table 21) or rat IL-33 (GenScript) were tested for inhibition of human IL-33 binding to DyLight650 labelled 33_640087-7B or DyLight650 labelled 33_640237-2B by adding 5 microlitres of each dilution of sample to a 384 well low volume assay plate (Costar, 3673). […] This was followed by the addition of 2.5 microlitres of a solution containing 0.12 nM biotinylated human IL-33-01 combined with 0.75 nM streptavidin cryptate detection (Cisbio International, 610SAKLB). All dilutions were performed in assay buffer containing 0.8 M potassium fluoride (VWR, 26820.236) and 0.1% bovine serum albumin (BSA, PAA, K05-013) in Dulbeccos PBS (Invitrogen, 14190185). Assay plates were incubated for 4 hours at room temperature followed by 18 hours at 4 degrees Celsius and time resolved fluorescence was read at 620 nm and 665 nm emission wavelengths using an EnVision plate reader (Perkin Elmer). Data were analysed by calculating the 665/620 nm ratio followed by the % Delta F values for each sample. The 665/620 nm ratio was used to correct for sample interference using Equation 1. The % Delta F for each sample was then calculated using Equation 2. The negative control (non-specific binding) was defined by replacing biotinylated human IL-33 combined with streptavidin cryptate detection with streptavidin cryptate detection only. The % Delta F values were subsequently used to calculate % specific binding as described in Equation 3. IC₅₀ values were determined using GraphPad Prism software by curve fitting using a four-parameter logistic equation (Equation 4).

[3] = biological target: T1, 33v20064 IgG1; test: HTRF: unlabelled test protein competes with biotinylated human IL33-01 for DyLight labelled 33v20064 IgG; remark: listed apart in the source
Protocol: as §1

[4] = biological target: B2; test: HTRF: unlabelled test protein competes with biotinylated human IL33-01 for DyLight650 labelled 33_640087-7B IgG
Protocol: as §2, with “The negative control (non-specific binding) was defined by replacing biotinylated human IL-33 combined with streptavidin cryptate detection with streptavidin cryptate detection only. The % Delta F values were subsequently used to calculate % specific binding as described in Equation 3.” left out

[5] = biological target: T3, Endogenous human IL-33 (human, UniProt O95760 1-270, limits assumed); test: cell-based or functional assay
T3 sequence (looked up): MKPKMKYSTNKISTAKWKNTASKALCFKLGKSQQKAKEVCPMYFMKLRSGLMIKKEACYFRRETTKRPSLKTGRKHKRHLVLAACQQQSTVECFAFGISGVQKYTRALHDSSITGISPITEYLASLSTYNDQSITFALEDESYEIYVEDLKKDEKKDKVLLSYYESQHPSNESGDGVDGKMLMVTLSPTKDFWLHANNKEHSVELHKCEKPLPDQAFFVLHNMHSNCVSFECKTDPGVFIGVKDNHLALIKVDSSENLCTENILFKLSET

[6] = biological target: T4, His10/Avi Human IL33-01 (human); test: HTRF competition: purified IgG against FLAG-His human ST2 for biotinylated IL33-01, overnight incubation
T4 construct: Wild type mature IL-33 with N-terminal 10xHis, Avitag and Factor Xa site; biotinylated by BirA on the Avitag where used biotinylated; reduced form unless treated; also called N-terminal His Avi IL-33; His-Avi human IL-33 wild type
T4 chain: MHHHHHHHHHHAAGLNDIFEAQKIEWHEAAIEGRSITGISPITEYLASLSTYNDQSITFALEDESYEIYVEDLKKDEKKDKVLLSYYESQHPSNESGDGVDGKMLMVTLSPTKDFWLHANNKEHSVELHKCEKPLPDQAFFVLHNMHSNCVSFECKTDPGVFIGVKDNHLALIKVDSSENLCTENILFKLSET

[7] = biological target: T4, His10/Avi Human IL33-01; test: cell-based or functional assay
[8] = biological target: T5, Recombinant human IL-33 (construct not named in the example) (human, UniProt O95760 112-270, limits assumed); test: KinExA 3200, IgG at 5 pM and 500 fM equilibrated with IL-33, 25 C
T5 construct: also called Recombinant, enzymatically biotinylated human IL-33 (produced in-house); IL-33 (200 nM)
T5 sequence (looked up): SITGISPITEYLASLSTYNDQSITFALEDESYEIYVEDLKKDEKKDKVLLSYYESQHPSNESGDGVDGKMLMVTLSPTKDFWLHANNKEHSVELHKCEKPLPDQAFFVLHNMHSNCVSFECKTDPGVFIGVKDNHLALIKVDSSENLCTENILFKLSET
Protocol: The affinity of the antibody 33_640087-7B was measured by kinetic exclusion assays performed on the KinExA 3200. The sampling beads were prepared by mixing 200 mg of dry UltraLink Biosupport Azlactone beads with 110 μg of IL-33 (as mentioned previously) in 2.5 ml of 50 mM sodium hydrogen bicarbonate pH 8.4 at room temperature for 2 hours with constant agitation. The beads were rinsed and blocked with 10 mg/ml BSA in 1M Tris pH 8.7. Prior to use, the beads were resuspended into D-PBS, 0.02% sodium azide. 33_640087-7B/IL-33 equilibrium mixtures were prepared in sample buffer composed of 1 mg/ml BSA, 0.02% sodium azide in DPBS (Dulbecco's PBS). […] The fluorescent secondary detection reagent was Alexa Fluor 647 goat anti-human-Fc diluted in 1 mg/ml BSA, 0.02% sodium azide, 0.1% Tween 20 in DPBS. The samples were run on the KinExA whilst housed in a temperature controlled cabinet set at 25° C. The data was analysed using the KinExA Pro software version 4.1.11.

Binder	IC50 (read off the curve) [1] [pM]	IC50 (read off the curve) [2] [pM]	IC50 (read off the curve) [3] [pM]	IC50 (read off the curve) [4] [pM]	IC50, Huvec IL-8 release stimulated by human lung lysate [5] [pM]	IC50 (read off the curve) [6] [pM]	IC50 (nM) vs. His Avi IL-33, Huvec IL-8 assay [7] [nM]	Kd [8] [pM]
B1	~100000	~1000	~200000	~700	–	–	–	–
B2	–	–	–	–	13	~400	0.046	0.03
